Measured values published in PMC5566480.

How the values were obtained:
[1] = target: Recombinant human Toll-like receptor 2 (rTLR2) (UniProt O60603); experiment: ELISA; competition: synthesized peptides (1 μM, and dose-dependent for IC50) against the binding of rLipL32WT to rTLR2
[2] = target: Recombinant human Toll-like receptor 2 (rTLR2) (UniProt O60603); experiment: ELISA; dose-dependent; rTLR2 coated, LipL32 variants 0 to 2 μM in PBS, 90 min at 37 °C, anti-His6 detection; in the presence of 1 µM Ca2+; Kd from a one-site fit
[3] = target: Recombinant human Toll-like receptor 2 (rTLR2) (UniProt O60603); experiment: ELISA; dose-dependent; rTLR2 coated, LipL32 variants 0 to 2 μM in PBS, 90 min at 37 °C, anti-His6 detection; in the presence of 1 µM EGTA; Kd from a one-site fit
[4] = target: Recombinant human Toll-like receptor 2 (rTLR2) (UniProt O60603); experiment: AFM force spectroscopy; rTLR2 covalently fixed on mica, LipL32 or variant coupled to the AFM tip (glutaraldehyde); force-distance curves, maximum distribution force and binding frequency; anti-TLR2 antibody as neutralising control
[5] = target: Recombinant human Toll-like receptor 2 (rTLR2) (UniProt O60603); experiment: ELISA; conditions: parent: est. 0.37; read off a plot

Recombinant human Toll-like receptor 2 (rTLR2), sequence (O60603 21-784): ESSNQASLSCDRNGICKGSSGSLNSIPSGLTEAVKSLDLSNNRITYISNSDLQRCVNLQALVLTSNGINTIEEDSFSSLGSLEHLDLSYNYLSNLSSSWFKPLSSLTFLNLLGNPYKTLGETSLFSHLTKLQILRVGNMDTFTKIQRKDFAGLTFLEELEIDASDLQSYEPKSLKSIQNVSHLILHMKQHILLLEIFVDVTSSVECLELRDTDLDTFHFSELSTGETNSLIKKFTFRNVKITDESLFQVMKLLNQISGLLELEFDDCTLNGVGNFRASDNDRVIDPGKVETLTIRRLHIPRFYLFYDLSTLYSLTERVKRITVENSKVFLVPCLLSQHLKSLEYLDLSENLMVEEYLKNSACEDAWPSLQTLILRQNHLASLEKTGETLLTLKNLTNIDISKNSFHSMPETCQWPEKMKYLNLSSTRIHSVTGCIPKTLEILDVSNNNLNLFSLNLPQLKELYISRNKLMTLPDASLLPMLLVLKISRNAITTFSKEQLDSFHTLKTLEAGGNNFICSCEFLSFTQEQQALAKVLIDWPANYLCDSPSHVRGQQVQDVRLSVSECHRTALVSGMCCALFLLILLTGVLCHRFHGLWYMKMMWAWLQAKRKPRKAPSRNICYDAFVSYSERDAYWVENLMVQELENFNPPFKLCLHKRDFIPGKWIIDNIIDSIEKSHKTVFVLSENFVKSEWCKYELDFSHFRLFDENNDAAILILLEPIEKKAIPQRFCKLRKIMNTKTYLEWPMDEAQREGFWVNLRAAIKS

| Substance | IC50 [1] [nM] | Kd [2] [nM] | Kd [3] [nM] | other results |
| --- | --- | --- | --- | --- |
| C25 peptide (248–272 residues of LipL32) | 140 | – | – | – |
| rLipL32 D195A variant (natural protein) | – | 100 | 120 | – |
| Recombinant LipL32 wild type, mature form (rLipL32; 21-272) (natural protein) | – | 130 | 450 | maximum distribution force (AFM) [4]: 55.3 pN |
| N50 peptide (1–50 residues of LipL32) | 70 | – | – | – |
| Recombinant LipL32 wild type, mature form (rLipL32; 21-272) L263S | – | – | – | response [5]: 0.29 OD450nm |
| N20 peptide (1–20 residues of LipL32) | 90 | – | – | – |
| rLipL32 D196A variant (natural protein) | – | 160 | 160 | – |
